Data published in article PMC11316637 (Structure (London, England : 1993), 2024).

Target: A/New Caledonia/20/1999 (H1N1) hemagglutinin, truncated recombinant HA (Influenza A virus A/New …, UniProt Q6WG00, strain)
Assay: ELISA

B1: mAb BE1 (whole mouse antibody) (antibody, V domains shown)
VH: EVQLVESGGGLVQPKGSLKLSCATSGFTFNTFDMHWVRQAPGKDLEWVARIRTKGNSYATYYAASVKDRITISRDDSQSMLYLEMNSLRSEDTAMYYCVREGGHYYGYYFDFWGQGTTLTVSS
VL: EIQMTQTTSSLSASLGDRVTISCRASQDIYNYLNWYQQQPDGAVKLLIYYTSKLHSGVPSRFSGSGSGTDYSLTITNLEQEDIATYFCQQGYTLPYTFGGGTKLEIK
  binding result: binds
